For orientation: stoichiometry N means the number of molecules, sites or subunits per partner or assembly.

We go through one substance from publication doi:10.1101/2025.10.27.684718.

In the assay the target is hsKir6.2 (Q52E) subunit of the cryo-EM KATP construct (human) (UniProt Q14654). The assay can be described thus: cryo-EM structure.

Regarding “hsKir6.2 (Q52E) subunit of the cryo-EM KATP construct (from UniProt Q14654 2-390) (natural protein)”, the stoichiometry N is 4.
